Results taken from publication PMC3498625.

Target: Wza from E. coli K30, purified DDM-solubilised octameric complex (E. coli K30)
Experiment: cryo-EM structure

Wza from E. coli K30, purified DDM-solubilised octameric complex (natural protein)
stoichiometry N: 8
